Measurements taken from patent US20100190693A1.

Legend:
[1] = target: CBP (endogenous, HIT cells) (hamster); assay: cell-based or functional assay
KIX-VP16 = KIX-VP16 (UniProt Q92793); assay: cell-based or functional assay
Chain of KIX-VP16 (Q92793 587-666): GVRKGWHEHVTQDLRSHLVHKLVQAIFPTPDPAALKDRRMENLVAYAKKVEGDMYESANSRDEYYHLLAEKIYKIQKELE

Substance	GAL4 luciferase reporter in HIT cells, response to cAMP [1]	GAL4 luciferase reporter, mammalian two-hybrid assay in HIT cells, forskolin (KIX-VP16)
GAL4-CREB M1 (Ser133Ala) (from UniProt P04386 1-147; P16220 1-341)	2.5 fold	–
GAL4-CREB, wild-type (from UniProt P04386 1-147; P16220 1-341)	10 fold	–
GAL4-KID (from UniProt P16220 87-146)	–	20 fold
